Assay results taken from patent publication US20120263730A1 (DEUTSCHES KREBSFORSCHUNGSZENTRUM, published 2012).
Each block holds one binder with its values, some of them ahead of it.

B1: hRspo1-AP (human Rspondin-1 fused C-terminally with alkaline phosphatase) (ligand, UniProt Q2MKA7 21-263, looked up)
chain: SRGIKGKRQRRISAEGSQACAKGCELCSEVNGCLKCSPKLFILLERNDIRQVGVCLPSCPPGYFDARNPDMNKCIKCKIEHCEACFSHNFCTKCKEGLYLHKGRCYPACPEGSSAANGTMECSSPAQCEMSEWSPWGPCSKKQQLCGFRRGSEERTRRVLHAPVGDHAACSDTKETRRCTVRRVPCPEGQKRRKGGQGRRENANRNLARKESKEAGAGSRRRKGQQQQQQQGTVGPLTSAGPA
notes: Used as conditioned medium from HEK293T cells; also called hRspol-AP; not shown: alkaline phosphatase (AP) tag

Experiments:
[1] = molecular target: T1, mouse Syndecan-1 (mouse, UniProt P18828 23-311, glycosaminoglycan chains (sites not given)); assay: cell surface binding, AP fusion on transfected HEK293T cells
T1 construct: whole, on cells; Expressed on transfected HEK293T cells; also called Sdc1; mSdc1
T1 sequence (looked up): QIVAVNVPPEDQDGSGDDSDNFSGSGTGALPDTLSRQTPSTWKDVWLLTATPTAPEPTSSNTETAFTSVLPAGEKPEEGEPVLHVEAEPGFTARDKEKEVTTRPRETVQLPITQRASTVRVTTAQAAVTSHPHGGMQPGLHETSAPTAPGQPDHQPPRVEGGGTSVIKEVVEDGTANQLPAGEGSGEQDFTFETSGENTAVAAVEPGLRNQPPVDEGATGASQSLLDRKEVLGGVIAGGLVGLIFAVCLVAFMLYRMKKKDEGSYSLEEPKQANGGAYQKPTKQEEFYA
Text: (§1) (A) Rspo2 and Rspo3 bind to Syndecan-1, Syndecan-2, Syndecan-3 and Syndecan-4. […] HEK293 T-cells were transfected with indicated plasmids and alkaline phosphatase tagged Rspo1, Rspo2, Rspo3 and Rspo4 proteins were applied for cell surface binding as indicated. Cells were transfected with indicated plasmids and conditioned media containing alkaline phosphatise (AP)-fusion proteins of R-spondins were applied for cell surface binding and AP staining as indicated. (B) Cells were transfected with indicated plasmids and incubated with or without NaClO₃. After 24 h Rspo3-AP was applied for binding and proceeded for staining. (C) In vitro binding assay with N-streptag Sdc4ΔTMC purified from conditioned media of control or NaCIO₃ treated cells with purified Rspo3-AP (RU, relative units). (D) Scatchard plot analysis for in vitro binding assays with purified N-streptag Sdc4ΔTMC and Rspo3-AP. (E) Rspo3 binds to Glypican-1, Glypican-2, Glypican-3, Glypican-4, Glypican-5 and Glypican-6.
(§2) Protein conditioned media were produced by transient transfection of HEK293T cells with plasmids encoding fusion proteins: hRspol-AP, hRspo2ΔC-AP, hRspo3ΔC-AP, hRspo3TSP-AP, and dkk1-AP in complete DMEM. XWnt8-hFzd5 fusion was produced in serum-free medium (OPTIMEM I, Gibco) and conditioned medium was concentrated about 100-fold using Centricon Plus-20 filters (Millipore). Wnt5aV5 protein conditioned media was produced using L cells stable transfected with pWnt5aV5. For cell-surface binding experiments, 293T cells were plated on polylysine coated plates, transfected with genes to be tested using FuGENE 6 (Roche) for 48 h, incubated with conditioned media containing fusion proteins for 2 h on ice, washed with Hank's buffer, fixed for 30 min with 0,5mM DSP (Pierce) in Hank's-100mM HEPES, pH 7,2, washed with 0,1 M Tris pH 8,0 and stained with Fast Red (Roche). […] It should be compared with background staining obtained from cells transfected with control plasmid or other genes that are not able bind applied fusion protein.

[2] = molecular target: T2, mouse Syndecan-3 (mouse, UniProt Q64519 45-442, glycosaminoglycan chains (sites not given)); assay: as above
T2 construct: whole, on cells; Expressed on transfected HEK293T cells; also called Sdc3; mSdc3
T2 sequence (Q64519 45-442): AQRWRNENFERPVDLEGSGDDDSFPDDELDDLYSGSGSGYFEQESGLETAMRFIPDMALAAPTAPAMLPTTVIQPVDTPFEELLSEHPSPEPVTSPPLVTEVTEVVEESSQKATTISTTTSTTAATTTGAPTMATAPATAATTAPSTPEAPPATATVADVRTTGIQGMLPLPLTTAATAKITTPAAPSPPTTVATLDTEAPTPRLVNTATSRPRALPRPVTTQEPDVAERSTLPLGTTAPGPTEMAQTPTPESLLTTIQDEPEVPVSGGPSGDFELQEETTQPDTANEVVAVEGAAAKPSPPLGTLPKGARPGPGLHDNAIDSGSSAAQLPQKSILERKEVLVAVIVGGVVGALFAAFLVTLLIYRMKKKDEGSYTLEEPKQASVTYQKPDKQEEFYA
Text: as §1, §2

[3] = molecular target: T3, hRspo3ΔC-AP (human Rspondin-3 aa 1-209 fused to alkaline phosphatase) (human, UniProt Q9BXY4 22-209); assay: in vitro binding assay: N-streptag Sdc4ΔTMC on streptavidin-coated plates, serially diluted hRspo3ΔC-AP, bound AP activity by chemiluminescence, Scatchard plot
T3 construct: partially purified for the in vitro assay; also called Rspo3-AP; hRspo3-AP; not shown: alkaline phosphatase (AP) tag
T3 sequence: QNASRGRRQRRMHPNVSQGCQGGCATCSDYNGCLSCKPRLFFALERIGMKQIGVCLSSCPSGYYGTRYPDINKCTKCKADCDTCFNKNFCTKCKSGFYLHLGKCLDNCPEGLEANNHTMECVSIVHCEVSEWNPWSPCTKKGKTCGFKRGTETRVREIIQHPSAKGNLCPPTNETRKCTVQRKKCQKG
Method: For the in vitro binding assay white, high binding ELISA 96 well plates (Greiner) were coated overnight at 4° C. with 100 μL of 2 μg/mL Streptavidin in bicarbonate buffer (NaHCO₃, 50 mM, pH 9,6). Wells were washed 6 times with […] TBST and incubated with […] of blocking buffer (5% BSA, 1mM MgCl₂ on TBST) on a shaker for 1h at RT. The wells were loaded with […] N-streptag Sdc4ATMC protein in blocking buffer and allowed to bind overnight on a shaker at 4° C. Wells were washed 6 times with […] TBST and incubated with […] of blocking buffer for 1 h. For the binding experiments, […] of serially diluted hRspo3ΔC-AP were placed in wells coated with blocking buffer or N-streptag Sdc4ΔTMC. After 2 h incubation at RT wells were washed 6 times with […] TBST. Bound AP activity was measured using chemiluminescent SEAP Reporter Gene Assay (Roche). For each dilution, background binding value was subtracted from hRspo3ΔC-AP value. Binding data were analyzed by Scatchard plot using Excel.

[4] = molecular target: B1; assay: cell surface binding, AP fusion on transfected HEK293T cells
Text: as §1, §2

[5] = molecular target: T4, Wnt5aV5 (V5-tagged Wnt5a) (mouse, UniProt P22725 62-380, limits assumed); assay: cell surface binding on transfected HEK293T cells
T4 construct: The construct text says 'mWnt3a was subcloned' for pPGKmWnt5aV5, which is probably a slip; Conditioned medium from stably transfected L cells; also called mWnt5aV5; recombinant Wnt5a; not shown: V5 tag
T4 sequence (looked up): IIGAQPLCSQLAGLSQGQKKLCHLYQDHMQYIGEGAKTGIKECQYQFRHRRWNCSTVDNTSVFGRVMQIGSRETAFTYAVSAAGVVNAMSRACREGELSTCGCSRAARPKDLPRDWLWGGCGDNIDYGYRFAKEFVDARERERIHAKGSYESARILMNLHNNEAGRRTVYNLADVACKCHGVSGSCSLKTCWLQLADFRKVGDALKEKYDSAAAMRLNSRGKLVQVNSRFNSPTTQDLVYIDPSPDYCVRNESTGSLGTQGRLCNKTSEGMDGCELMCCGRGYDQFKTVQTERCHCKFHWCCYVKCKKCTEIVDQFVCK
Text: (A-C) Cell surface binding assays. (A, D) Rspo3 binds to syndecan 4 and glypican 3. HEK293T cells were transfected with indicated plasmids and V5-tagged Wnt5a or alkaline phosphatase tagged Rspo3, Dkk1, or TSP proteins were applied for cell surface binding as indicated. (B, C, E, F) Cells were transfected with indicated plasmids and conditioned media.
as §2

Binder: B1
binding result [1]: no binding | binding result [2]: no binding

Kd [3]: 0.88 nM
B2: N-streptag Sdc4ΔTMC (human Syndecan-4 extracellular domain, last 52 amino acids deleted, N-terminal Streptag-HA-CBP) (receptor)
chain: ESIRETEVIDPQDLLEGRYFSGALPDDEDVVGPGQESDDFELSGSGDLDDLEDSMIGPEVVHPLVPLDNHIPERAGSGSQVPTEPKKLEENEVIPKRISPVEESEDVSNKVSMSSTVQGSNIFERTE
modifications: sulfated glycosaminoglycan chains (GAGs)
notes: The Sdc4 signal peptide was replaced by that of mKremen2; Partially purified from conditioned medium of HEK293T cells and captured on streptavidin-coated plates; also called N-streptag-hSdc4ΔTMC; purified extracellular domain of Sdc4; not shown: Streptag-HA-CBP fragment of the pGLUE expression vector

binding result [4]: no binding | binding result [5]: no binding
B3: human Syndecan-4 (receptor)
chain: ESIRETEVIDPQDLLEGRYFSGALPDDEDVVGPGQESDDFELSGSGDLDDLEDSMIGPEVVHPLVPLDNHIPERAGSGSQVPTEPKKLEENEVIPKRISPVEESEDVSNKVSMSSTVQGSNIFERTEVLAALIVGGIVGILFAVFLILLLMYRMKKKDEGSYDLGKKPIYKKAPTNEFYA
modifications: glycosaminoglycan chains (GAGs)
notes: Expressed on transfected HEK293T cells; also called Sdc4; hSdc4
